Source: KR20200098338A (dated 2020)

What was measured:
[1] = target: T1, 인간 BAG2 단백질 (human BAG2 protein) (human, UniProt O95816 2-211); assay: immunoblot selection of hybridoma clones
T1 construct: also called BAG2 폴리펩티드

[2] = target: T2, GST-Bag Full (GST-융합 전장 BAG2 폴리펩티드) (human, UniProt O95816 1-211); assay: immunoblot of lysate of HEK293T cells transfected with GST-Bag Full vector, signal at about 50 kDa
T2 construct: Expressed in HEK293T cells, detected at about 50 kDa in lysate by immunoblot; also called GST-Bag Full 벡터 발현 산물; not shown: GST tag, about 26 kDa, from pcDNA3.1+/GST vector (NovoPro Bioscience)

[3] = target: T1, 인간 BAG2 단백질 (human BAG2 protein); assay: immunoblot of MDA-MB-231 cell lysate, antibody from hybridoma culture at 1/2000

T1 sequence (O95816 2-211 limits assumed): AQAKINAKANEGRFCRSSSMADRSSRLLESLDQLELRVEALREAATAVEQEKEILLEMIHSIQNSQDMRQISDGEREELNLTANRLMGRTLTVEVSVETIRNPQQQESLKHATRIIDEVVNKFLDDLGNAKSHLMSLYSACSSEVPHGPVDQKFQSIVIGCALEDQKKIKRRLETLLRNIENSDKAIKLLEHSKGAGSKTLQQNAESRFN
T2 sequence (O95816 whole entry): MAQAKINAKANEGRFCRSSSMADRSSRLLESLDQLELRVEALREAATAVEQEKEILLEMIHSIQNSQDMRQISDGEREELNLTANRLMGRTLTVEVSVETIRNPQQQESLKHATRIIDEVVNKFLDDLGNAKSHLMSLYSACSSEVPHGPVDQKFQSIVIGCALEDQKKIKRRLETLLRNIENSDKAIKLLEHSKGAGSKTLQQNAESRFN

Binder	binding result [1]	binding result [2]	binding result [3]
2A11 항체 (항-BAG2 단일클론성 항체) (antibody, V domains shown, Mouse hybridoma monoclonal antibody) VH: QVQLQQPGAELVRPGASVTLSCKASGYTFTDYEMHWVKQTPVHGLEWIGIIDPETGGTAYNQKFKGKATLTADKSSSTAYMELRSLTSEDSAVYYCTRGKFYYSGRDYAMDYWGQGTSVTVSS VL: DVLMTQTPLSLPVSLGDQASISCRSSQSIVHSNGNTYLEWYLQKPGQSPKLLIYKVSNRFSGVPDRFSGSGSGTDFTLKISRVEAEDLGVYFCFQGSQVPPTFGGGTKLEIK	binds	binds	–
8C4 항체 (항-BAG2 단일클론성 항체) (antibody, V domains shown, Mouse hybridoma monoclonal antibody) VH: QVQLQQPGAELVRPGASVTLSCKASGYTFTDYEMHWVKQTPVHGLEWIGIIDPETAGTAYNQKFKGKATLTADKSSSTAYMELRSLTSEDSAVYYCTRGKFYYSGRDYAMDYWGQGTSVTVSS VL: DVLMTQTPLSLPVSLGDQASISCRSSQSIVHSNGNTYLEWYLQKPGQSPKLLFYKVSNRFSGVPDRFSGSGSGTDFTLKISRVEAEDLGVYFCFQGSQVPPTFGGGTKLEIK	–	binds	binds
4C2 항체 (항-BAG2 단일클론성 항체) (antibody, V domains shown, Mouse hybridoma monoclonal antibody) VH: QVQLQQPGAELVRPGASVTLSCKASGYTFTDYEMHWVKQTPVHGLEWIGIIDPETGATAYNQKFKGKATLTADKSSSTAYMELRSLTSEDSAVYYCTRGKFYYSGRDYAMDYWGQGTSVTVSS VL: DVLMTQTPLSLPVSLGDQASISCRSSQSIVHSNGNTYLEWYLQKPGQSPKLLFYKVSNRFSGVPDRFSGSGSGTDFTLKISRVEAEDLGVYFCFQGSQVPPTFGGGTKLEIK	–	binds	binds
3G8 항체 (항-BAG2 단일클론성 항체) (antibody, V domains shown, Mouse hybridoma monoclonal antibody) VH: QIQLVQSGPELKKPGETVKISCKASGYSFTKYGMNWVKQAPGKDIKWMGWINTNTGEATYGEEVKGRFAFSLETSASTAYLQINNLKNEDTATYFCARLGLRYLDYWGQGTTLTVSS VL: DIVMTQSPASLVVSLGQRATISCRASKSVSTSDYSYMHWYQQKPGQPPKVLIYLASNLESGVPARFSGSGSGTDFTLNIHPVEEEDAATYYCQHNRELPPTFGAGTKLELK	–	binds	binds
3F12 항체 (항-BAG2 단일클론성 항체) (antibody, V domains shown, Mouse hybridoma monoclonal antibody) VH: QVQLQESGPDLVKPSQSLSLTCTVTGYSITSGYSWHWIRQFPGNKLEWMGYIYYRGSTNYNPSLKSRISITRDTSKNQFFLLLKSVTTEDTATYYCAREAYWGQGTLVTVSA VL: not shown	binds	binds	–
